± gives the standard deviation.
Assay: protein stability index of a GFP-peptide fusion (GPS, HEK-293T) (PSI 1-6); higher = more stable
[1] = treatment: DMSO, c terminus: a fixed tail appended
[2] = treatment: MLN4924 1 uM, 8 h, c terminus: a fixed tail appended
[3] = treatment: DMSO, c terminus: native
[4] = treatment: MLN4924 1 uM, 8 h, c terminus: native
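Note: 24-mer peptide tiles fused after GFP, lentivirally expressed, FACS-sorted into six equal bins by GFP/DsRed ratio, decoded by Illumina sequencing, PSI is the read-weighted mean bin number.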

Sequence | protein stability index [1] | protein stability index [2] | protein stability index [3] | protein stability index [4]
QVETSIEGTIPFSKPVKVYIMPKP [INTS4] | 2.65 ± 0.33 | 2.65 ± 0.42 |  | 
EKFDIVKKWGINTYKCTKQLLSER [ARFIP2] | 2.78 ± 0.37 | 2.79 ± 0.19 |  | 
VKAKEQIENYKKQTRNGLGKDHEI [FUT8] | 4.59 ± 0.17 | 4.76 ± 0.16 |  | 
QLTCFSITCSSTMSYSCCLPSLGC [KRT34] | 3.04 ± 0.58 | 2.65 ± 0.35 |  | 
IMNDLSNRVWSISQEPDPVQRLQA [TRIM14] | 3.16 ± 0.31 | 3.16 ± 0.17 |  | 
EDQPINLCDKLPPATALGTASYPS [NOL4L] | 4.6 ± 0.19 | 4.62 ± 0.084 |  | 
LGSGQFAIVRKCRQKGTGKEYAAK [DAPK3] | 3.55 ± 0.52 | 3.48 ± 0.16 |  | 
KENEMMKSHVMDQAINNAINYLGA [IKZF1] | 3.24 ± 0.089 | 2.87 ± 0.3 |  | 
MALQLGRLSSGPCWLVARGGCGGP [CPOX] | 2.36 ± 0.38 | 2.44 ± 0.38 |  | 
GNGKNLVDFTFVENVVHGHILAAE [NSDHL] | 3.08 ± 0.36 | 2.91 ± 0.51 |  | 
TQYFVQENYLEYRQVPGSDPACYE [MAGEA6] | 3.34 ± 0.29 | 3.59 ± 0.38 |  | 
IQDRLSNTLQTYIRCRHPPPGSHL [VDR] | 2.73 ± 0.17 | 2.74 ± 0.22 |  | 
DLVNRTPWKKCCFSGDGEYIVAGS [RBBP5] | 2.64 ± 0.25 | 2.37 ± 0.21 |  | 
VEKSSPATSLFVELDEEEVKAATT [BCL2L13] | 5.53 ± 0.22 | 5.46 ± 0.2 |  | 
NAKTEQGPTGVTMTSNPITWGQIK [CDK11A] | 4.19 ± 0.16 | 4.12 ± 0.24 |  | 
ILGETQEEEDEILPRKDYESLDYD [CLCN6] | 5.33 ± 0.2 | 5.18 ± 0.086 |  | 
NVFKELQIMQGLEHPFLVNLWYSF [STK32A] | 2.74 ± 0.55 | 2.49 ± 0.53 |  | 
AEGLANGPDVLETDGLQEVPLCSC [EHMT1] | 4.75 ± 0.2 | 5 ± 0.31 |  | 
GGRTALHHAALNGHVEMVNLLLAK [ANKRD44] | 2.76 ± 0.35 | 2.69 ± 0.23 |  | 
VGNNHESWGWDLGRNRLYHDGKNQ [SPSB1] | 3.83 ± 0.33 | 3.87 ± 0.42 |  | 
EDYSRDEDHIAHIIELLGSIPRHF [SRPK2] | 2.62 ± 0.13 | 2.85 ± 0.31 |  | 
VSSDGTLKYMEVTLRPTDSQSHCY [PCDHGC5] | 2.8 ± 0.38 | 2.65 ± 0.23 |  | 
AFLELPHGSGGSGYPAAPPAVPFA [TBX6] | 2.55 ± 0.15 | 2.69 ± 0.39 |  | 

Sequence | protein stability index [1] | protein stability index [2] | protein stability index [3] | protein stability index [4]
KRRRKETSECPSDKDKSPESHKAK [C10orf62] | 5.34 ± 0.27 | 5.42 ± 0.21 |  | 
AYQQGVGYQMLGNVVTIGLAFFPF [PHTF1] | 2.93 ± 0.39 | 3.13 ± 0.067 |  | 
LSALDSKANNLSSLSKKYRQDAKY [SEC22B] | 3.87 ± 0.19 | 3.98 ± 0.3 |  | 
GVGTSMEGASPLSERCQRQLQSLC [FANCE] | 3.9 ± 0.16 | 3.78 ± 0.15 |  | 
THSREKSSQESGEEAGSQENHPQE [CHGB] | 5.54 ± 0.39 | 5.6 ± 0.18 |  | 
QAAFTQQGMEGIKVFLHERELWLK [TBX5] | 2.86 ± 0.37 | 2.92 ± 0.4 |  | 
SDDDEEEEENIGCEEKAKKNANRP [ACBD3] | 5.42 ± 0.28 | 5.49 ± 0.38 |  | 
ILSGHEHAVSTCHFCVDDTKLLSG [WDR88] | 2.71 ± 0.35 | 2.92 ± 0.35 |  | 
SPELGRPHDRSQGDWAPPPEGGME [ZNF263] | 5.18 ± 0.21 | 5.41 ± 0.25 |  | 
LWEKVMPSRYAAIYNGGVEAVSTL [SLC19A2] | 2.19 ± 0.22 | 2.07 ± 0.29 |  | 
AGALLRLPSERLDFSMAEALNQEF [PRPH] | 3.32 ± 0.3 | 3.52 ± 0.35 |  | 
DQEIKFFRCLFEAEITQIQSHISD [KRT71] | 2.25 ± 0.36 | 2.34 ± 0.77 |  | 
ARLRHQELFRLRGIKAQVALRLAE [NOP53] | 2.22 ± 0.15 | 2.22 ± 0.31 |  | 
KNGRVDSEDRRSRHCPYLDTINRS [USP39] | 3.99 ± 0.26 | 4.2 ± 0.34 |  | 
KGNREDSARMSAGLPGPEAARSGD [PLEKHN1] | 5.41 ± 0.39 | 5.39 ± 0.41 |  | 
INSTAPFEEQENYFLLCDVLPEDR [ZNF277] | 3.92 ± 0.36 | 4.12 ± 0.18 |  | 
AGGGGFGGGSLSGGGGSRSISASS [KRT15] | 3.89 ± 0.3 | 4 ± 0.21 |  | 
GKPGDRNCPEFPPPDRTLGCWATD [RSPH3] | 4.03 ± 0.28 | 4.32 ± 0.24 |  | 
EEVTRLGAQVKELEEKCQQPASEL [TRIM15] | 5.5 ± 0.12 | 5.52 ± 0.13 |  | 
MSAALFSLDGPARGAPWPAEPAPF [CEBPD] | 2.95 ± 0.14 | 3.21 ± 0.18 |  | 
GSVLRIQPLRTPRDEAIYECVASN [PTPRD] | 3.24 ± 0.12 | 3.17 ± 0.43 |  | 
HFQDNLHSVNRDLNELERLSNLVG [MED27] | 3.47 ± 0.19 | 3.52 ± 0.36 |  | 
VRRRYSDFEWLRSELERESKVVVP [SNX3] | 2.17 ± 0.12 | 2.33 ± 0.17 |  | 

Sequence | protein stability index [1] | protein stability index [2] | protein stability index [3] | protein stability index [4]
ALQYAGDGSVLLIPRTMADQQARR [NFE2L1] | 3.11 ± 0.14 | 3.19 ± 0.63 |  | 
IISKPVPQTLIMAYDYAKEVNSAE [FEM1C] | 2.93 ± 0.34 | 2.81 ± 0.16 |  | 
MDTQFTIRARELQNIYKCIMLKNI [IQUB] | 2.27 ± 0.24 | 2.37 ± 0.3 |  | 
YRGAVYADNMEFEQCIKLWLHALH [FEM1B] | 2.19 ± 0.27 | 2.22 ± 0.48 |  | 
AGKSGTSTPTTPGSTAITPGTPPS [MAP2] | 5.11 ± 0.33 | 5.11 ± 0.44 |  | 
SMDNTPHTPTPFKNALEKYGPLKP [MYBL2] | 3.48 ± 0.092 | 3.7 ± 0.16 |  | 
NATWLVNSAAHLFGYRPYDKNISP [SCD] | 2.4 ± 0.19 | 2.34 ± 0.41 |  | 
VPLGPLGETYCEEHGEKIYFFCEN [TRIM15] | 3.42 ± 0.15 | 3.54 ± 0.36 |  | 
LEDMGQPPAEEAEQPGALAREFLA [FKBP8] | 5.15 ± 0.19 | 5.38 ± 0.2 |  | 
ASSRSQQSSKRSSRSVEDDKEGHL [CLK3] | 5.44 ± 0.079 | 5.52 ± 0.29 |  | 
PFEPQALGLSPSWRLTGFSGMKG [SEPHS2] |  |  | 2.51 ± 0.53 | 2.64 ± 0.25
GGIQEGAVTPAGVVNKYQINGLQA [DHCR7] | 3.93 ± 0.27 | 4.17 ± 0.22 |  | 
RRNSEFEIFVDCDINREQLNDIFH [TPH1] | 2.55 ± 0.096 | 2.73 ± 0.27 |  | 
EKNNHRAKDLRAPPEQGKIFIARR [SOAT1] | 3.16 ± 0.33 | 3.27 ± 0.5 |  | 
TLDKRWRVRKEAMMGLAQIYKKYA [PDS5B] | 2.23 ± 0.21 | 2 ± 0.14 |  | 
SILNAKAPALPPGGTDPHGYHQVP [FOXJ1] | 3.6 ± 0.2 | 3.66 ± 0.14 |  | 
IQKLTQIETGENVTGMELEFKRLA [PTPRD] | 3.51 ± 0.08 | 3.55 ± 0.43 |  | 
KLQLQLNETKSQAFVSNSPKLFCP [PLD5] | 2.87 ± 0.075 | 2.95 ± 0.6 |  | 
NQMDKARRHPQGAWKELDRNYLNY [CHGB] | 2.77 ± 0.32 | 2.84 ± 0.19 |  | 
TRGKRESESRGSSGRVKRERDRER [USP39] | 5.04 ± 0.26 | 5.3 ± 0.18 |  | 
YYTTMQTLTKQDTMLKAMFSGRME [KCTD10] | 2.4 ± 0.16 | 2.4 ± 0.36 |  | 
WWTNWVIPAISAVAVALMYRLYMA [CYB5A] | 3.22 ± 0.15 | 3.29 ± 0.36 |  | 
ESPRKRKKATEAIDSLRKSKRLRN [FBXO28] | 5.3 ± 0.23 | 5.33 ± 0.14 |  | 

Sequence | protein stability index [1] | protein stability index [2] | protein stability index [3] | protein stability index [4]
EKNIILEEKIQVLQQQNEDLKARI [MTUS2] | 4.03 ± 0.24 | 4.04 ± 0.23 |  | 
VCCNPYHFSRLCGPESPPPPYSRL [SMAD6] | 2.15 ± 0.36 | 2.15 ± 0.18 |  | 
DWASNKVMFKIGDLGHVTRISSPQ [WEE1] | 2.53 ± 0.25 | 2.64 ± 0.41 |  | 
RGGGGGGGGGAPRGRYGPPSRRSE [SRSF1] | 5.61 ± 0.1 | 5.49 ± 0.071 |  | 
AGGHLAVVELLLAHGADPTHRLKD [ANKRD17] | 1.95 ± 0.18 | 2.11 ± 0.32 |  | 
LVLAIPLLLILVSYVHILSAILQF [OR10K2] | 3.37 ± 0.14 | 3.17 ± 0.28 |  | 
EHQRSHTGERPHQCIECGKSFNRH [ZSCAN9] | 3.88 ± 0.41 | 4.17 ± 0.41 |  | 
LYLVGFLDLFGVSMVVPLLSLHVK [MFSD9] | 3.61 ± 0.17 | 3.19 ± 0.33 |  | 
ICPLKERRFGAVACGVAMELYVFG [GAN] | 2.36 ± 0.53 | 2.96 ± 1.1 |  | 
GFGSKNTAFCTHVFPETAFIAVTS [TBX5] | 2.28 ± 0.42 | 2.09 ± 0.3 |  | 
AQTLAMMLQEQLDAINEEIRMIQE [PPFIA4] | 2.95 ± 0.29 | 2.7 ± 0.46 |  | 
PTPMPHNKGTRFSEAWEYFHLAPA [ZBED2] | 2.65 ± 0.2 | 2.71 ± 0.33 |  | 
GCEDEYLVNPTCQVLVKDFTFEGF [ZER1] | 2.89 ± 0.47 | 2.85 ± 0.4 |  | 
GKFIRLKNTSEQDQPMGGWEMIRK [LMNB1] | 3.73 ± 0.083 | 3.7 ± 0.2 |  | 
VVEEELFHQQGTPRASNRSCAIM [LMNB1] |  |  | 2.77 ± 0.3 | 3.16 ± 0.4
WKPPDIKGKLMVCYETLPRGQCLL [SPAG8] | 2.27 ± 0.4 | 2.32 ± 0.41 |  | 
EFAEMVEREEEDDALDSEGRDSEG [KCNG1] | 5.68 ± 0.22 | 5.62 ± 0.29 |  | 
NALLSKRLLALTSSDLGCQPSRT [TMEM192] |  |  | 2.52 ± 0.72 | 2.61 ± 0.3
LIISCRKLFYFKIWAFLDVSFVER [FBXO39] | 3.43 ± 0.47 | 2.9 ± 0.099 |  | 
VPYCERDYEKMFGTKCHGCDFKID [PDLIM7] | 3.2 ± 0.55 | 3.46 ± 0.22 |  | 

Reference: the supplement of paper PMC10567573
